This note sets out measurements from PMC10302205, “Saccharomyces cerevisiae Δ9-desaturase Ole1 forms a supercomplex with Slc1 and Dga1” (The Journal of Biological Chemistry, 2023).

To fix the notation:
B1: NubG-Dga1 (full-length NubG-Dga1 fusion) [S. cerevisiae] / Ole1-Myc-Cub-LexA-VP16 [S. cerevisiae] (parent complex)
chain 1: MSGTFNDIRRRKKEEGSPTAGITERHENKSLSSIDKREQTLKPQLESCCPLATPFERRLQTLAVAWHTSSFVLFSIFTLFAISTPALWVLAIPYMIYFFFDRSPATGEVVNRYSLRFRSLPIWKWYCDYFPISLIKTVNLKPTFTLSKNKRVNEKNYKIRLWPTKYSINLKSNSTIDYRNQECTGPTYLFGYHPHGIGALGAFGAFATEGCNYSKIFPGIPISLMTLVTQFHIPLYRDYLLALGISSVSRKNALRTLSKNQSICIVVGGARESLLSSTNGTQLILNKRKGFIKLAIQTGNINLVPVFAFGEVDCYNVLSTKKDSVLGKMQLWFKENFGFTIPIFYARGLFNYDFGLLPFRAPINVVVGRPIYVEKKITNPPDDVVNHFHDLYIAELKRLYYENREKYGVPDAELKIVG
chain 2: MPTSGTTIELIDDQFPKDDSASSGIVDEVDLTEANILATGLNKKAPRIVNGFGSLMGSKEMVSVEFDKKGNEKKSNLDRLLEKDNQEKEEAKTKIHISEQPWTLNNWHQHLNWLNMVLVCGMPMIGWYFALSGKVPLHLNVFLFSVFYYAVGGVSITAGYHRLWSHRSYSAHWPLRLFYAIFGCASVEGSAKWWGHSHRIHHRYTDTLRDPYDARRGLWYSHMGWMLLKPNPKYKARADITDMTDDWTIRFQHRHYILLMLLTAFVIPTLICGYFFNDYMGGLIYAGFIRVFVIQQATFCINSLAHYIGTQPFDDRRTPRDNWITAIVTFGEGYHNFHHEFPTDYRNAIKWYQYDPTKVIIYLTSLVGLAYDLKKFSQNAIEEALIQQEQKKINKKKAKINWGPVLTDLPMWDKQTFLAKSKENKGLVIISGIVHDVSGYISEHPGGETLIKTALGKDATKAFSGGVYRHSNAAQNVLADMRVAVIKESKNSAIRMASKRGEIYETGKFF

The assay covers variants of B1. The experiment in a line: integrated membrane yeast two-hybrid assay (β-galactosidase reporter); n = 3 biological replicates; parent: 1; read off a plot.
Regarding chain 1 K397A, chain 1 R398A, chain 1 D411A, chain 1 E413A, chain 1 K415A, the ratio to parent is around 0.2.
Turning to chain 1 R404A, chain 1 E405A, chain 1 K406A, the ratio to parent was around 0.84.
